# Data reported in IntAct's records for PubMed 10722738.
# B1: Early protein (Human adenovirus A serotype 12 (HAdV-12)), P03259-2 (parent)
# chain: MRTEMTPLVLSYQEADDILEHLVDNFFNEVPSDDDLYVPSLYELYDLDVESAGEDNNEQAVNEFFPESLILAASEGLFLPEPPVLSPVCEPIGGECMPQLHPEDMDLLCYEMGFPCSDSEDEQDENGMAHVSASAAAAAADREREEFQLDHPELPGHNCPVSDNEPEPNSTLDGDERPSPPKLGSAVPEGVIKPVPQRVTGRRRCAVESILDLIQEEEREQTVPVDLSVKRPRCN
# Variants of: B1
# Conditions: with cbp_human CREBBP
row,Variant,effect of a mutation on the interaction
1,I18P,decreasing interaction
2,D16A,disrupting interaction
3,L19S,decreasing interaction
